The values that follow come from article PMC6544042, “Switching the Post-translational Modification of Translation Elongation Factor EF-P” (Frontiers in Microbiology, 2019).

Substrate in this series: Cc1cn([C@H]2C[C@H](O)[C@@H](COP(=O)(O)OP(=O)(O)O[C@H]3O[C@@H](C)[C@H](O)[C@@H](O)[C@H]3O)O2)c(=O)[nH]c1=O
In words: anti-rhamnosylarginine Western blot, band intensity, Michaelis-Menten fit. The format is biochemical, Pseudomonas putida. Conditions: 2.5 μM unmodified EF-P of P. putida as acceptor, 0.1 μM EarP, 100 mM sodium phosphate pH 7.6, 30 °C, 20 s, commercial TDP-Rha. On the technique in general: A western blot detects proteins with antibodies after separation by electrophoresis.

B1: EarPPpu (Pseudomonas putida KT2440) (protein)
chain: MKATWDIFCSVVDNYGDIGVTWRLARQLVAEHGLAVRLWVDDLNAFTPMCPGADATAAQQWQHGVDVRHWPAAWLPVAPADVVIGAFACQLPAAYVEAMRARPQPPLWLNLEYLSAEDWVEGCHGLPSPQPNGLRKVFFFPGFTDKTGGLLREGSLLARRDGFQQSAEARRAFLQGLGVDLVPGALLISLFAYENPQLGNWLDALATADQPCHLLVPQGRVVAGLSQWLGEGPLHVGDVRTRGALTVQVLPFVSQDDFDRLLWSCDFNAVRGEDSFVRAQWAGQPMLWHIYVQDENAHWEKLEAFLAHYRCGLSDDADAALLGLWRAWNMDFDMGQAWRAARQHWPELQQHARLWGARQAAQPDLATALVHFYRNSL
notes: C-terminal His6 tag kept; pBAD33-earPPpu, E. coli LMG194 host, Ni-NTA purified; GT-B fold, GT104 family
With B1, the Km was determined as 5 µM.

Usually Km stands for the concentration of substrate that gives half-maximal velocity.
